We go through 50 sequences from the domain aggregation screens of Martell et al. (2025).
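Further: 20 min heating vs room temperature control held 20 min.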

This data set is described as follows: soluble fraction after stress (log2 fold change); higher = more stays soluble; pooled small domains, quantitative proteomics. Particulars: stress: 75 degC.
Consider “HMVAELAEMAENKNITSAQLALAWILKQSENIIPIPGTKRIKYLNENIEAVNVDLSKEDVENIENLLRKYP”, for which the “soluble fraction (log2)” value was -0.104. Turning to “HMVAGHLQEKNGQFYAVLSYKDTKGKRRTKWVPTGLMVRGNKKRAEAMLNDIRRKFVPPEQED”, the “soluble fraction (log2)” value was -0.474. “HMVAGPDEPLSDREQGVLDLLAEGLSNKAISKQLGISVATVKSHLSNIYGKLQAENRMQAVARARELGLM”: the “soluble fraction (log2)” value is no less than 1.04. For “HMVAISNTSGLAGVAYWIQSNIPKGIDIRKDNPGIVTIKNWIDEEYRKGRTTTISEEEMFKLVREYMPEL”, the “soluble fraction (log2)” value was -1.87. As to “HMVAMGQRVVPLTHLSIDDVRRLLESTYGKDSGIEVTKPGTAAKGVIVTAPRTELDGIVALVKQA”, the “soluble fraction (log2)” value is -0.113.

As to “HMVAMYLRVGISNGRRYLSIVQGYRDQVTKKVRHNTVKSLGYLDDLEKHYPDPIAHFKAVVEEMNKKQALE”, the “soluble fraction (log2)” value was -2.04.

In the case of “HMVANDQILNQYGISDREAEIIGLLIEGLSNQQIAKQLYISPNTVKTHIKNIYAKVGVNNRLQLFSLLK”, the “soluble fraction (log2)” value was -0.435. Regarding “HMVANLPFNYKVYAKKGKLYVVISYKDSNGKYKKKWIRTGLDEGTKKKEVNTVADQIAAEYYSSMRLE”, the “soluble fraction (log2)” value was -3.52.

As to “HMVAQQINDFRSERDASTGTLKRPLFDTLRDVISSRAQAYVSATGKPVTVEDLDRIYQAVEAEAKQAL”, the “soluble fraction (log2)” value stood at 0.0174. The figure for “HMVDDELTARRRVNLRRIADELGGAAAVARKTQKSVQQISSMLNGTKSFGSKIARDIEPKLGLPLQSLDKE” is 0.0147; for “HMVDDRPVTGTTLIREWQGRAYEVIVQAGHFEFQGQRYQSLSAIAKVITGTVWNGWAFFGLR” it is -0.415; for “HMVDDTGLPTVLISDGRLLERNLHRLHLDHTWLQRRLEENNIPSIQSLFLLTVDKQHQLYFLKK” it is -1.74.

Turning to “HMVDGTPALTDLKKVSKPGRRHYTGSQEIPRVLNGLGISIVSTSKGIMTGAQARRQKVGGELLAFV”, the “soluble fraction (log2)” value worked out at 0.0345. As for “HMVDIIMDLLEAVAQARPADAFIKSLHIQYQERGGLSKKQLQGLYGKAAKTAGIPPGKLATLEAIILKRP”, the “soluble fraction (log2)” value was -2.52. In the case of “HMVDITPDLIRTLLERFGEYGVTKEHIEARIQRHIESILPAQVVQLRKTYNSLKDGMSQPSDWFDI”, the “soluble fraction (log2)” value is -1.9. With “HMVDLEINGRQTLQFVANKYGIPVEKLATDLNIPSDRFGEKLGRLRRQYAFTMNDVRKSILKNK”, the “soluble fraction (log2)” value was -0.588. “HMVDPELFIWVESSKEPVYHLAYKIELFVHSTDPQDDVPVHRWQVFVDAHNGNILDKFDEVR”: the “soluble fraction (log2)” value is -0.292.

As for “HMVDPRWETPDENLAEQIKSVMPVMWVYDREAKSFVERPAIDFSFSIFERTTLYIYDKDGNEIGFAR”, the “soluble fraction (log2)” value was -0.0443. Turning to “HMVDQVDKDRFLEALTQLGGSAGNVRLRETLQWEEEVYVIIKDALVKSGTILTGRGRGGSVLLASA”, the “soluble fraction (log2)” value was -0.95.

As for “HMVDSLTIGRRIRQLRTERGMTLEELAAAVGRAPSQLSMIENGRREPKLTLLQAIARALGSTLDALLE”, the “soluble fraction (log2)” value was -0.562. Regarding “HMVDVNLLKYYVMESGKSLTDVAAAIGVTPATLHRKMSGESDFYRKEMQDIASYLGLDRDTIDRIFF”, the “soluble fraction (log2)” value is -1.84. Regarding “HMVEDIVLTDAQIEFVKQQAKNGLSAFQISEMIWPEMSVKRFSKQHVAVLDFLREYEPAYVHDSE”, the “soluble fraction (log2)” value was determined as 0.156.

Take “HMVEELDVQFIKLTVQGDHPWKNKKIRELSIPWDLLFVLIIRGDKSIIPNGKTTIKDGDIVVVSAPEYRG”: the “soluble fraction (log2)” value was -1.12. The figure for “HMVEFLMESTNGMYGIVKEGSSYYVQKGINESSLDYIGGMFMKDKNRFSSYSTALKRLELISGQET” is -0.419; for “HMVEGMQFDRGYQSPYFVTNAEKMVAELDNPYILLVEKKISSMKELLPVLEPVAQQGKSLLIISEEVEG” it is 0.0546; for “HMVEGTVKWFNDEKGFGFIEQEGGKDVFVHFSAINGSGRRTLHEGQRVTMEVTQGQKGPQAENVNP” it is 0.147. For “HMVEIPEFKITTFVNTDNEQIAEFENGFTDKKAEITFNNTKYVFKEKLPDQDGIRTYVYEELHE”, the “soluble fraction (log2)” value was determined as 0.141. “HMVELGMSQNEFIQKFGKPFNKEMAYTYDKHKRETLFYKEDLYRGSWFIVTTAFTFVDSKLVSQEIVREER”: the “soluble fraction (log2)” value was -3.36.

Consider “HMVENMDEFIGRVRRLVSDRLDLLKEASDDEIRETISQVVLELSREQFLTLNEKKTVLEGVFNSMR”, for which the “soluble fraction (log2)” value is -0.944. For “HMVERLVVSPGAGVFAPNKAIANGTRISVGDVLGMVGEQEVRSLFDGVLQSFISVDGERLTAHQPVAWLRT”, the “soluble fraction (log2)” value is -0.587. “HMVEVPKVAGMSTAQGVSELEQKGFVVNRTESYDDTVPKGNIISQTPEGGTKVPSGSAVTIKISQGAE”: the “soluble fraction (log2)” value was -0.159.

As to “HMVEVPNVIGMTKPELTQQFVNLKLDGSGEGDVVVQQSPSEGSKVKEGSTVRVYFG”, the “soluble fraction (log2)” value amounted to 0.128. For “HMVEVPNVSNLTLEQAENKLIQQGLQVKLEGQGEKVVAQIPQPGAVVNKKSTVILF”, the “soluble fraction (log2)” value turned out to be 0.258. As for “HMVFLPDEIFRLKVIKAGEGPEQGVGYLDDGTMVVIEGARDRIGDELEVRVTSTLQTNAGKMIFTKFE”, the “soluble fraction (log2)” value is -0.548. Take “HMVGEPEPIRYSRFLDEMKSGKLDSVVIQGDTILGVRKDKSQFKTVNPETDYSALIGALDKAGVGIEGRA”: the “soluble fraction (log2)” value is 0.132. As for “HMVGEYTVKKGDTLWKIAGQTLGSPLRYAEIYELNKDVIEEAALGRGKKNSSNGHWIFQGTVLKIPA”, the “soluble fraction (log2)” value is -0.188. To “HMVGIAEAMKHIADEDYGDLSAIFKQIFSDTDGGRNFSDAIRTQMRSTDSSGLRKVLSTLIMSIEE” belongs -0.651; to “HMVGNEEALRAIVESIIAQNTTEVASFREGKEGLIGWFLGQVMRQTGGKADPKLARQILLELLKQ”, -0.449. With “HMVGNYYDILGVPETATQDAIKKAFRSLAQQHHPDKNPDDPGAEAMFKKVSEAYQVLSDPDKRQTYDASL”, the “soluble fraction (log2)” value was -0.00926. The figure for “HMVIDFYDPQTKVIHEIKKSSAKEEAHVWQVKYYIYLFEKEEIMGVKGVLEYPLLREIVSVNF” is 0.19; for “HMVINQRKLNLLSIYSSGSEKRAIILFPTGQTKFVKVGDTLDGGRVAAIGTSEIRYLKGGNNLVLRIPG” it is -2.64; for “HMVINTRHTGFVVDDLERFINFYLGLGLKLISRKVESGEYIDKLVGLKGTKLEWAKLSLPDNSMIEILKYH” it is -0.508. In the case of “HMVIREVNDNPVSAEELRLGDRVKVLSLGQNGEIVTLPDEKGELTVQVGILKAKVNLDDIMLI”, the “soluble fraction (log2)” value is -0.177. Consider “HMVISAKRMQDRRDSILDAAREAFARAGFEGTSIADIARRAGVSDGLVYRYFASKRDLLNAVLTA”, for which the “soluble fraction (log2)” value is -1.61. For “HMVIVGGDVIVHYVDTEGKKISDDVVKSGNVGEDYSTDQKTILGYRFKEVQGNTSGKFTDKTQVVTYIYT”, the “soluble fraction (log2)” value was determined as 0.649. Take “HMVKEVKVPDVEGLTTEEAIKELKKYGLAYTTKSEENTDIEEGKVIRTEPKKGSTKVKGSTVTIIESSG”: the “soluble fraction (log2)” value stood at 0.451. Regarding “HMVKFGERVKQLRLSAGMTQEQLAERIWVTKAAISNYELSERNPSPETIIKIAGVFGVTTDYLLGLED”, the “soluble fraction (log2)” value was -1.9.

“HMVKIVWSKEGPYVGTRVRRYFSQGPVDGTVVMYAKPQKGDDVALWRISHDDGDEEDLEEQELRLAID”: the “soluble fraction (log2)” value was -1.06. As to “HMVKLQATPSQRKTLDELYVQLKKLEPTAKEDLSLLRRLENSHLVSKQEAQGLISKAIGRVGALAVEQQP”, the “soluble fraction (log2)” value is 0.0219.

With “HMVKNTIHVDLKGEVNKPGVYEVEEGTIVNDLITLANGFTKNAYQDNINLSKKLTDEMVIVVSKKGS”, the “soluble fraction (log2)” value stood at 0.476.
